Assay results reported in paper PMC3706390.

Key:
Assay in all cases: EMSA
Details in all cases: 30 mM Tris-HCl pH 8.0, 75 mM KCl, 5 mM MgCl2, 1 mM DTT, 0.04 ug/uL BSA, 10% glycerol, 50 ng/uL yeast tRNA, 30 C 15 min; EMSA gels 0.5X TBE at 4 C; RNase …
L30 Y89A Y89A (rat) = L30 Y89A Y89A (rat) (UniProt P62890)
L30 L35A L35A (rat) = L30 L35A L35A (rat) (UniProt P62890)
L30 K36A K36A (rat) = L30 K36A K36A (rat) (UniProt P62890)
L30 K87A K87A (rat) = L30 K87A K87A (rat) (UniProt P62890)

## PHGPx SECIS 102 nt (REMSA)
L30 Y89A Y89A (rat)
  binding signal (% of WT binding): 32
L30 L35A L35A (rat)
  binding signal (% of WT binding): 86
L30 K36A K36A (rat)
  binding signal (% of WT binding): 78
L30 K87A K87A (rat)
  binding signal (% of WT binding): 60
